In US20070212355A1 (priority 2005, published 2007):

Columns and labels:
CD-1 mice [1] = assay: Myeloperoxidase histochemistry of intestinal muscularis, post-operative inflammatory ileus; assay type: in vivo; details: 2 mg/kg one hour before surgery; tissue 48 hr after operation; FIG. 6, 7
Procedure: Myeloperoxidase histochemistry was performed on tissues harvested from the mid-small bowel of the mice 48 hr after the operation.
Briefly, segments of mid-small bowel were collected from the centrifuge tubes described in Example 12. Whole mounts of the muscle layer were prepared by pinning the tissue flat in a Sylgard® lined Petri dish and stretching the tissue to 2 times its length and 1.5 times its width. The mucosa was removed by fine dissection. The muscularis whole mounts were then fixed with 100% ethanol for 1 hr, washed 3 times with PBS, and incubated for 20 min in PBS containing 0.1% hydrogen peroxide and 1 mg/ml Hanker-Yates reagent. Following a second wash with PBS, the whole mounts were mounted on glass slides, cover-slipped, and viewed on an optical microscope. Myeloperoxidase containing leukocytes were counted in 6 to 8 adjacent 200× optical fields of view and the mean cell counts were calculated and recorded.

CD-1 mice [2] = assay: Gastrointestinal transit in post-operative inflammatory ileus model; assay type: in vivo; details: 2 mg/kg one hour before surgery; transit 48 hr after operation, 45 minutes; FIG. 5
Procedure: On the day of study, upper gastrointestinal transit was measured using the FITC-dextran method. This method provides both, a measure of gastrointestinal transit and a readout of the pattern of distribution of the test meal along the gastrointestinal tract. Mice were fed a test meal of […] of FITC-dextran solution (5 mg/ml of 70,000 molecular weight dextran conjugated to fluorescein-isothiocyanate in 0.5% methylcellulose/deionized water) administered intragastrically by an 18 gauge curved feeding tube. Following oral administration of the FITC-dextran test meal, mice were returned to their home cages. It was shown that a 30 min test period was the optimum duration for detecting accelerated transit, while a 45 min test period was optimum for detecting delayed transit. Following the appropriate test period, mice were sacrificed by carbon dioxide exposure. The entire gastrointestinal tract from the lower esophageal sphincter to the terminal colon was removed. […] Aliquots of the cleared supernatant were read in duplicate on a 96-well fluorescence plate reader to quantify the magnitude of the fluorescent signal in each segment of bowel. […] The GC is calculated in the lower panel for statistical comparison. […]
All mice received an oral test meal of FITC-dextran 48 hr after the operation. Gastrointestinal transit was determined 45 minutes after oral feeding. […]

B1: SEQ ID NO: 80: human A2G-GLP2 peptide in murine IgG2a scaffold (protein)
chain: HGDGSFSDEMNTILDNLAARDFINWLIQTKITDGSGGGSGTTVTVSAEPRGPTIKPCPPCKCPAPNAAGGPSVFIFPPKIKDVLMISLSPIVTCVVVDVSEDDPDVQISWFVNNVEVHTAQTQTHREDYNSTLRVVSALPIQHQDWMSGKEFKCKVNNKDLPAPIERTISKPKGSVRAPQVYVLPPPEEEMTKKQVTLTCMVTDFMPEDIYVEWTNNGKTELNYKNTEPVLDSDGSYFMYSKLRVEKKNWVERNSYSCSVVHEGLHNHHTTKSFSRTPGK
modifications: Human A2G-GLP2 peptide in murine IgG2a scaffold
Question: Which results are given for B1?
Answer: number of MPO-positive leukocytes infiltrating small intestinal muscle layer (CD-1 mice [1]): significantly reduced the number of infiltrating cells; effect on surgically induced delay in gastrointestinal transit (CD-1 mice [2]): significant improvement in transit
